Experimental data published in US12460006B2, “Antibodies against integrin alpha 11 beta 1” (Momenta Pharmaceuticals, Inc., priority 2019, dated 2025).

T1: α11β1 expressed on the surface of CHO-K1 cells (Homo sapiens, UniProt Q9UKX5)
T1 construct: expressed in transfected cells; host or cells: CHO-K1
T1 sequence (Q9UKX5 23-1188): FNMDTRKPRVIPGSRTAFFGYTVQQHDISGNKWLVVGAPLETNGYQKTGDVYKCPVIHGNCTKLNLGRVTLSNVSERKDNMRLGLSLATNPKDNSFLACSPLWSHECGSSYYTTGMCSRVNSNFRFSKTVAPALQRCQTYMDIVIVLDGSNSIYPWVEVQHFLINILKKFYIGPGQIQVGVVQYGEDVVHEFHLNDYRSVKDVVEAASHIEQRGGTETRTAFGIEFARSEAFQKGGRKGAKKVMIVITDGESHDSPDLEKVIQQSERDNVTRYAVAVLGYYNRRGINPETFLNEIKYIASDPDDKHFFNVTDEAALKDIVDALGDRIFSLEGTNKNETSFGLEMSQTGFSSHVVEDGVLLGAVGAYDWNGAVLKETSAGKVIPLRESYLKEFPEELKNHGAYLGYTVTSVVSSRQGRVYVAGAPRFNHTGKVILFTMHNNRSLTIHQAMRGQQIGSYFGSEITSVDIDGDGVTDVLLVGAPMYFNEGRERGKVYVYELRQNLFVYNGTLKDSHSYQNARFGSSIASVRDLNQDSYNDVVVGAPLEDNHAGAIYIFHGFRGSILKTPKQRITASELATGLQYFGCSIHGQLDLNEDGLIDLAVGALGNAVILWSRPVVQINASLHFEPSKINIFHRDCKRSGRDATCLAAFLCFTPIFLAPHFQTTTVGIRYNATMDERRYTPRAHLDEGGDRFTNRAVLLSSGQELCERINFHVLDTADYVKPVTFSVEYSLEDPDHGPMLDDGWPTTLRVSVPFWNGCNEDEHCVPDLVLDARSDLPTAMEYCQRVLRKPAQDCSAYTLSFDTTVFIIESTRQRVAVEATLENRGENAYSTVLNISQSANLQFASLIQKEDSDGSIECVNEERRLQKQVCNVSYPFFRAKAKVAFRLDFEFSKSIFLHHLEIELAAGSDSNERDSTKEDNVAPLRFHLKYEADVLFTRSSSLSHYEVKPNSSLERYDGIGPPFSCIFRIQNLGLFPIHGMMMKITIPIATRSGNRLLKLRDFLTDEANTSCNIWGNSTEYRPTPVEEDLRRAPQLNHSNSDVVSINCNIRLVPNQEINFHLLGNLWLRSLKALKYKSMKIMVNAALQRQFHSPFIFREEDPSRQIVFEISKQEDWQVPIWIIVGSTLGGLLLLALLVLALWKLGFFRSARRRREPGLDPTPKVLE


Experiments:
α1β1, α2β1 and/or α10β1 = assay: Counter-screen for cross-reactivity to other collagen receptors; type: binding, human; details: cross-reactivity to α1β1, α2β1, α10β1
Summary of the method: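 Cross-reactivity was checked by ELISA counter-screen on human α1β1, α2β1 and α10β1. Tested material was hybridoma clones from rats or mice immunized with α11β1, previously selected for binding to soluble human and mouse α11β1.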

[1] = molecular target: T1, α11β1 expressed on the surface of CHO-K1 cells; assay: FACS antibody binding to CHO-K1 cells expressing human α11; details: binding Yes/No
Summary of the method: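 Wild-type or human α11-transfected CHO-K1 cells (endogenous β1) were incubated with antibody at varied concentrations for 30 min at 4° C, then secondary antibody (1:100) 30 min at 4° C. Cells were PFA-fixed and read by flow cytometry; binding EC50 estimated from FACS data.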

[2] = system: human pulmonary fibroblasts (HPFs); assay: FACS antibody binding to human pulmonary fibroblasts; details: binding Yes/No

Row | Molecule | Off Target (α1β1, α2β1 and/or α10β1) | CHO-K1 FACS [1] | HPF FACS [2]
1 | 6F9: rabbit anti-α11β1 mAb; heavy chain SEQ ID NO: 183, light chain SEQ ID NO: 184 (antibody) heavy: METGLRWLLLVAVLKGVQCQSLEESGGDLVKPGASLTLTCTASGSSFSSTYWNCWVRQAPGKGLEWIACINAGSGTTYYASWAKGRFTVSKTSSTTVTLQMTSLTAADTATYFCTRDSDGRFSSGYYFNLWGPGTLVTVSSGQPKAPSVFPLAPCCGDTPSSTVTLGCLVKGYLPEPVTVTWNSGTLTNGVRTFPSVRQSSGLYSLSSVVSVTSSSQPVTCNVAHPATNTKVDKTVAPSTCSKPMCPPPELPGGPSVFIFPPKPKDTLMISRTPEVTCVVVDVSQDDPEVQFTWYINNEQVRTARPPLREQQFNSTIRVVSTLPIAHQDWLRGKEFKCKVHNKALPAPIEKTISKARGQPLEPKVYTMGPPREELSSRSVSLTCMINGFYPSDISVEWEKNGKAEDNYKTTPTVLDSDGSYFLYSKLSVPTSEWQRGDVFTCSVMHEALHNHYTQKSISRSPGK light: MDTRAPTQLLGLLLLWLPGATFAQVLTQTASPVSAAVGGTVTINCQSSQSVYDNNWLAWYQQKPGQPPKLLIDDASKLTSGVSSRFKGSGSGTQFTLTISGVQCDDAATYYCQGAYYSSGWYWAFGGGTEVVVKGDPVAPTVLIFPPAADQVATGTVTIVCVANKYFPDVTVTWEVDGTTQTTGIENSKTPQNSADCTYNLSSTLTLTSTQYNSHKEYTCKVTQGTTSVVQSFNRGDC | No | Yes | No
2 | 6G4: rabbit anti-α11β1 mAb; heavy chain SEQ ID NO: 181, light chain SEQ ID NO: 182 (antibody) heavy: METGLRWLLLVAVLKGVQCQQQLEESGGGLVKPGGTLTLTCKASGVALNPYYYMCWVRQAPGKGLEWIACVDADSSGSTYYASWAKGRFTISKTSSTTVTLKMTSLTAADTATYFCARESVDYSSVGIGYVHGTDGLWGPGTLVTVSSGQPKAPSVFPLAPCCGDTPSSTVTLGCLVKGYLPEPVTVTWNSGTLTNGVRTFPSVRQSSGLYSLSSVVSVTSSSQPVTCNVAHPATNTKVDKTVAPSTCSKPMCPPPELPGGPSVFIFPPKPKDTLMISRTPEVTCVVVDVSQDDPEVQFTWYINNEQVRTARPPLREQQFNSTIRVVSTLPIAHQDWLRGKEFKCKVHNKALPAPIEKTISKARGQPLEPKVYTMGPPREELSSRSVSLTCMINGFYPSDISVEWEKNGKAEDNYKTTPTVLDSDGSYFLYSKLSVPTSEWQRGDVFTCSVMHEALHNHYTQKSISRSPGK light: MDTRAPTQLLGLLLLWLPGARCADIVVTQTPSSVSAAVGGTVTIKCQASQSISNYFSWYQQKPGQPPKLLIYRASTLASGVPSRFKGSGSGTEFTLTISDLECADAATYYCQCTYGRSNSNFFYGFGGGTEVVVKGDPVAPTVLIFPPAADQVATGTVTIVCVANKYFPDVTVTWEVDGTTQTTGIENSKTPQNSADCTYNLSSTLTLTSTQYNSHKEYTCKVTQGTTSVVQSFNRGDC | No | Yes | No
3 | 4E1: rabbit anti-α11β1 mAb; heavy chain SEQ ID NO: 195, light chain SEQ ID NO: 196 (antibody) heavy: METGLRWLLLVAVLKGVQCQSLEESGGDLVKPGTSLTLSCTASGFSFGSYYYMCWVRQAPGKGLEWIACIDVGSSGDTYYASWVNGRFTISKTSSTTVTLQMTSLTAADTATYFCARDDTAAGGFGNLELWGPGTLVTVSSGQPKAPSVFPLAPCCGDTPSSTVTLGCLVKGYLPEPVTVTWNSGTLTNGVRTFPSVRQSSGLYSLSSVVSVTSSSQPVTCNVAHPATNTKVDKTVAPSTCSKPMCPPPELPGGPSVFIFPPKPKDTLMISRTPEVTCVVVDVSQDDPEVQFTWYINNEQVRTARPPLREQQFNSTIRVVSTLPIAHQDWLRGKEFKCKVHNKALPAPIEKTISKARGQPLEPKVYTMGPPREELSSRSVSLTCMINGFYPSDISVEWEKNGKAEDNYKTTPTVLDSDGSYFLYSKLSVPTSEWQRGDVFTCSVMHEALHNHYTQKSISRSPGK light: MDTRAPTQLLGLLLLWLPGARCAFELTQTPSSVSEPVGGTVTIKCQASQSIYSYFSWYQQKPGQPPKRLIYQASTLASGVPSRFKGSGSGTDFTLTISDLECADAATYYCQNNYGRGSGSYFFGFGGGTEVVVKGDPVAPTVLIFPPAADQVATGTVTIVCVANKYFPDVTVTWEVDGTTQTTGIENSKTPQNSADCTYNLSSTLTLTSTQYNSHKEYTCKVTQGTTSVVQSFNRGDC | No | Yes | No
4 | 6C7: rabbit anti-α11β1 mAb; heavy chain SEQ ID NO: 185, light chain SEQ ID NO: 186 (antibody) heavy: METGLRWLLLVAVLKGVQCQQQLEESGGGLVKPGGTLTLTCKASGIDFSSYYYMCWVRQAPGKGLELIVCIYTSSGGTWYASWVNGRLTISRSTSLNTVDLKMTSLTAADTATYFCARGVYSGSSDYPTRLDLWGQGTLVTVSLGQPKAPSVFPLAPCCGDTPSSTVTLGCLVKGYLPEPVTVTWNSGTLTNGVRTFPSVRQSSGLYSLSSVVSVTSSSQPVTCNVAHPATNTKVDKTVAPSTCSKPMCPPPELPGGPSVFIFPPKPKDTLMISRTPEVTCVVVDVSQDDPEVQFTWYINNEQVRTARPPLREQQFNSTIRVVSTLPIAHQDWLRGKEFKCKVHNKALPAPIEKTISKARGQPLEPKVYTMGPPREELSSRSVSLTCMINGFYPSDISVEWEKNGKAEDNYKTTPTVLDSDGSYFLYSKLSVPTSEWQRGDVFTCSVMHEALHNHYTQKSISRSPGK light: MDTSTSTALLGLLLLWLTGARCAIEMTQSPPSLSASVGETVRIRCLASEDIYSGISWYQQKPEKPPTLLISGASNLESGVPPRFSGGGSGTDYTLTIGGVQAEDVATYYCLGGYSFSSTGLTFGAGTKVEIKRDPVAPSVLLFPPSKEELTTGTATIVCVANKYFPDVTVTWEVDGTTQTTGIENSKTPQNSADCTYNLSSTLTLTSTQYNSHKEYTCKVTQGTTSVVQSFNRGDC | No | Yes | No
5 | 5D7: rabbit anti-α11β1 mAb; heavy chain SEQ ID NO: 191, light chain SEQ ID NO: 192 (antibody) heavy: METGLRWLLLVAVLKGVQCQEQLVESGGGLVQPEGSLTLTCKASGFDFSSNAMCWVRQAPGKGLEWIACIYNGDGSTYYASWVNGRFTISKTSSTTVTLQMTSLTAADTATYFCARGLSNWNRDNLWGPGTLVTVSSGQPKAPSVFPLAPCCGDTPSSTVTLGCLVKGYLPEPVTVTWNSGTLTNGVRTFPSVRQSSGLYSLSSVVSVTSSSQPVTCNVAHPATNTKVDKTVAPSTCSKPMCPPPELPGGPSVFIFPPKPKDTLMISRTPEVTCVVVDVSQDDPEVQFTWYINNEQVRTARPPLREQQFNSTIRVVSTLPIAHQDWLRGKEFKCKVHNKALPAPIEKTISKARGQPLEPKVYTMGPPREELSSRSVSLTCMINGFYPSDISVEWEKNGKAEDNYKTTPTVLDSDGSYFLYSKLSVPTSEWQRGDVFTCSVMHEALHNHYTQKSISRSPGK light: MDTRAPTQLLGLLLLWLPGATFAQVLTQTPSSVSAAVGGTATINCQASQSLYSPKNLAWYQQTPGQPPKLLIYSASKLASGVPSRFKGSGSGTQFTLTISGVQCDDAAIYYCQGEFSCTTAACFAFGGGTEVVVKGDPVAPTVLIFPPAADQVATGTVTIVCVANKYFPDVTVTWEVDGTTQTTGIENSKTPQNSADCTYNLSSTLTLTSTQYNSHKEYTCKVTQGTTSVVQSFNRGDC | No | Yes | No
